Measurements: the supplement of paper PMC12338614

B1: library; numbered along this chain (parent)
chain: MEVVDPQQLGMFTEGELMSVGMDTFIHRIDSTEVIYQPRRKRAKLIGKYLMGDLLGEGSYGKVKEVLDSETLCRRAVKILKKKKLRRIPNGEANVKKEIQLLRRLRHKNVIQLVDVLYNEEKQKMYMVMEYCVCGMQEMLDSVPEKRFPVCQAHGYFCQLIDGLEYLHSQGIVHKDIKPGNLLLTTGGTLKISDLGVAEALHPFAADDTCRTSQGSPAFQPPEIANGLDTFSGFKVDIWSAGVTLYNITTGLYPFEGDNIYKLFENIGKGSYAIPGDCGPPLSDLLKGMLEYEPAKRFSIRQIRQHSWFRKKHPPAEAPVPIPPSPDTKDRWRSMTVVPYLEDLHGADEDEDLFDIEDDIIYTQDFTVPGQVPEEEASHNGQRRGLPKAVCMNGTEAAQLSTKSRAEGRAPNPARKACSASSKIRRLSACKQQ

Variants of: B1
Assay: STK11 functional score (HeLa growth suppression), rescaled enrichment; synonymous median = 1, nonsense median = 0 (normalised score)
Conditions: with HeLa; variant type: missense
Procedure, shortened: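 In HeLa, Bxb1 integrated POPCode codon-randomised libraries of codon-optimised STK11 at an AAVS1 landing pad; three regions were each transfected three times. Integrants, marked as BFP-negative and mCherry-positive, were FACS-sorted 4–5 days after electroporation and expanded for about two weeks before tiled gDNA amplicons were sequenced on NextSeq (~2 million reads per tile). Each functional score is a post/pre-selection log ratio corrected to wild type, rescaled to the synonymous and nonsense medians, and merged across codons and replicate transfections, with error estimated by bootstrapping.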

STK11 functional score: each site, then its substitutions
E342: P 1.53, F 1.14, L 1.26, K 1.61, Q 1.23, I 1.42, S 1.39, C 1.21, Y 1.38, D 0.774, M 1.46
L341: E 1.55, A 1.51, G 1.46, F 0.562, W 1.25, T 1.29, V 1.33, H 0.315, C 1.38, I 1.56, N 1.52, D 1.6, S 0.93, Q 1.59, P 1.54, R 1.21, M 1.63
E351: W 1.48, G 1.33, Q 1.28, I 1.27, L 1.43, F 1.19, R 1.26, D 0.951, H 0.374, P 1.55, C 1.06, T 1.52, S 1.4, Y 1.23, V 1.36, M 0.992
E349: Y 0.952, P 1.41, V 1.16, M 1.33, D 1.35, Q 1.16, A 1.5, R 1.37, G 0.983, I 1.05, S 1.38, W 1.14, T 1.51, F 0.989, C 1.1, N 1.48, L 1.47
D350: Y 1.45, I 1.25, Q 1.49, G 1.29, S 0.53, H 1.27, M 1.65, T 1.47, P 1.48, N 1.07, F 0.0925, C 1.51, R 1.61, A 0.867, L 1.6, W 1.6, V 1.19, E 1.25
E357: R 1.36, C 1.36, D 0.56, I 1.56, P 1.58, H 1.6, L 1.54, Q 1.13, F 0.965, G 1.47, A 1.12, M 1.52
G346: Y 1.57, F 1.29, N 1.6, C 1.22, D 0.435, K 1.61, E 1.35, Q 1.61, I 1.18, T 1.62, M 1.58, L 1.38, A 1.57, S 1.48, V 0.838, R 1.56, H 1.6, P 1.61
V338: A 1.56, Q 1.54, T 1.6, L 1.39, G 1.18, R 0.93, W 0.683, D 1.39, I 1.47, S 1.59, P 1.54, C 0.965
L353: P 1.12, S 1.6, W 1.12, V 1.42, D 1.61, I 1.19, C 1.17, A 1.56, Y 1.4, G 1.52, R 1.57, N 1.56, T 1.45, F 1.27, H 1.4
D348: T 1.57, S 1.59, A 1.54, Q 1.54, V 0.78, H 1.18, W 1.58, P 1.59, Y 0.868, N 0.723, I 1.41, G 1.26, R 1.2, L 1.3, M 0.896
D352: W 0.86, L 1.62, K 1.55, A 0.984, H 1.27, P 1.6, M 1.2, N 1.09, Y 0.953, C 1.34, S 1.57, R 1.61, E 1.15, T 1.57, V 1.12, Q 0.828
